Test results: PMC6677171, “Subunit interactions and arrangements in the fission yeast Mis16–Mis18–Mis19 complex” (Life Science Alliance, 2019)

B1: Mis19C: Mis19 truncation including sites A, B, and C, residues 52–112 (protein)
chain: PRVYETELLVLRFREFGVKDNHNHPINLHSLRSKSLIRAQGKKLDLHNRVFLRRNVRAVKM
B2: Mis19: S. pombe Mis18 partner protein (protein)
chain: MDLMPLEKARAIEIAFDNVFHNTKIPDNLQQFDAILKRLERRRFIPTENQKPRVYETELLVLRFREFGVKDNHNHPINLHSLRSKSLIRAQGKKLDLHNRVFLRRNVRAVKM

Experiments:
Mis16 = molecular target: T1, Mis16 (Schizosaccharomyces pombe, UniProt O94244); assay: Co-expression and affinity pull-down/size-exclusion co-purification of Mis19 deletions with Mis16; format: binding, S. pombe; details: co-expressed in insect cells, Strep-Tactin tag on Mis16, gel filtration, SDS–PAGE band
T1 construct: double-Strep-Tactin tag (TEV protease-cleavable) (N, cleaved yes); made in house; host or cells: insect cells (baculovirus made in Sf21, expression in Hi5)
Excerpt: Figure 2. Mis16–Mis19 contact regions. (A) Crystal structure of Mis16–Mis19 highlighting the Mis19-binding sites. Three putative binding sites A, B, and C (lighter to darker orange from N terminus to C terminus) are indicated. (B) Schematic of the various deletion constructs of Mis19 are used for binding studies showing the positions of sites A, B, and C. (C) Constructs containing affinity-tagged Mis16 and the Mis19 deletions shown above were co-expressed and purified by affinity pull-down and size-exclusion chromatography. SDS–PAGE gel of peak fractions is shown. Asterisks indicate impurities. (D) Close-up of the A- and C-binding sites. The locations of the kis1-1 (R65) and eic1-1 (F102) t.s. mutant residues are shown.
The C-terminal interaction of Mis19 with Mis16 (site C in our nomenclature) has been previously described ([An et al, 2018]). […] To test the contribution of the individual sites to the Mis16–Mis19 interaction, various truncated Mis19 constructs were designed, for which site A, […], or both A and C are missing (Fig 2B). Full-length Mis16 and Mis19C (includes sites A, B, and C, residues 52–112), construct 1 (includes site B and C, residues 66–112), construct 2 (includes binding site B, residues 66–99), and construct 3 (includes site A and B, residues 52–99) were co-expressed in insect cells, as the isolated Mis19 truncations cannot be expressed and purified. […]

Cnp1–H4 = assay: Pull-down competition with full-length histones Cnp1–H4 (histone octamers); format: binding, S. pombe; details: incubation with Cnp1–H4–H2A–H2B octamers (molar excess); 25 mM Tris–HCl, pH 7.5, 500 mM NaCl, 5% glycerol, 1 mM TCEP, at least 1 h at 4°C; SDS–PAGE
Experimental: We were unable to purify these directly as recombinant proteins, probably because of the lack of a suitable chaperone. […] As free Mis19 is extremely unstable, we tested if preformed Mis16–Mis19 dimers (full-length and N-terminally truncated, see sections below) could also interact with H4–Cnp1 by incubating them in a large molar excess of histone octamer.
All proteins were expressed in insect cells using standard procedures. Genes were codon-optimised in all cases (GeneArt). Single protein constructs were cloned in pFastBac vectors (Invitrogen), whereas multi-protein complexes were cloned using the MultiBac system ([Fitzgerald et al, 2006]). The Mis16 protein carried a TEV protease-cleavable double-Strep-Tactin tag at the N terminus for purification purposes. All clones were sequence verified. Baculoviruses were generated and amplified using Sf21 cells, infected in Hi5 cells, and then further incubated at 27°C for 48 h. Harvested cells were lysed by sonication in buffer A containing 50 mM Tris–HCl, pH 7.5, 150 mM NaCl, 0.5 mM TCEP, benzonase nuclease (3 units/1 × 10^6 cells), 10% glycerol, and protease inhibitors cocktail set III (Calbiochem). […]
All in vitro pull-down assays were performed using purified proteins or protein complexes. […] Input and pull-down elution samples were analysed by SDS–PAGE.

T1 sequence (O94244 whole entry): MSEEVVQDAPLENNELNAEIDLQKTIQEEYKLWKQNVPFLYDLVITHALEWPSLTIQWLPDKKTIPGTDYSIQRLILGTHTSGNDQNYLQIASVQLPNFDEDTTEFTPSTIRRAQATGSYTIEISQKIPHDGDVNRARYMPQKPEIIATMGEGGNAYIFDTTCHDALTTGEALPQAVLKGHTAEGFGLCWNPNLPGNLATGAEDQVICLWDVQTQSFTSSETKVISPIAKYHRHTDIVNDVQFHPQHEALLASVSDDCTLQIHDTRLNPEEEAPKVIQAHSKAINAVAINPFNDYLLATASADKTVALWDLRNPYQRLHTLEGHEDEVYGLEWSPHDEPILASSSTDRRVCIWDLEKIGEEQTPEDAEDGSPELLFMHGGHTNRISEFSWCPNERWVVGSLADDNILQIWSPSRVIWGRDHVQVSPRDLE

| Molecule | association with Mis16 (Mis16) | interaction with Cnp1–H4 / histone transfer (Cnp1–H4) |
| --- | --- | --- |
| B1 | Mis19 is associated with Mis16 | no histones can be transferred onto Strep-Mis16 |
| B2 |  | completely inhibits histone transfer to Mis16 |
